Results from PMC2289352.

Molecular target: S1 triple mutant containing all three substitutions L108D, L112D, and V117D
Assay: SEC

**Q.** For “S1 triple mutant containing all three substitutions L108D, L112D, and V117D (domain or fragment)”, which protein eluting in the void volume of Sephacryl S200 (self-association) is on record?
**A.** > 50%
